Patent US20130177981A1

How the values were obtained:
Assay in all cases: cell-based or functional assay
[1] = biological target: gp41 of HIV-1 strain CC 1/85 (HIV-1 strain CC 1/85)
[2] = biological target: gp41 of HIV-1 strain HC4 (HIV-1 strain HC4)
[3] = biological target: gp41 of HIV-1 strain DJ258 (HIV-1 strain DJ258)
[4] = biological target: gp41 of HIV-1 strain NL4-3 (HIV-1 strain NL4-3)

## T-20 (peptide)
[1]
  Inhibition of HIV-1 infectivity, IC50 (nM), CC 1/85: 1400 nM
[2]
  Inhibition of HIV-1 infectivity, IC50 (nM), HC4: 250 nM
[3]
  Inhibition of HIV-1 infectivity, IC50 (nM), DJ258: 330 nM
[4]
  Inhibition of HIV-1 infectivity, IC50 (nM), NL4-3: 700 nM
